Kd data for three molecules are collected here from paper PMC8887474.

The series concerns the target YTHDC1 YTH domain (Homo sapiens, UniProt Q96MU7 345-509). Kind of series: ITC.

B1: UG-mismatch (m6A)UCG Xist hairpin (structured_RNA)
RNA: GGCGUAUCGGCGCC
modifications: m6A at position 6
For the molecule B1, the dissociation constant (Kd) was 2050 ± 100 nM.

B2: (m6A)UCG Xist tetraloop hairpin (structured_RNA)
RNA: GGCGCAUCGGCGCC
modifications: m6A at position 6
On to B2, for which the Kd was 3030 ± 530 nM.

B3: CC(m6A)UCG hexamer (ssRNA)
RNA: CCAUCG
modifications: m6A at position 3
In turn, B3 showed a Kd of 1270 ± 240 nM.
